Measurements: patent US20250282881A1 (SHANGHAI EPIMAB BIOTHERAPEUTICS, published 2025)

Legend:
[1] = target: T1, human OX40 on cells (CHO-K1-hOX40, CHO-OX40, Jurkat-OX40 reporter cells) (human, UniProt P43489 29-277); experiment: FACS on human OX40 transfected CHO cells
T1 construct: also called human OX40-transfected CHO cell; CD134
T1 sequence: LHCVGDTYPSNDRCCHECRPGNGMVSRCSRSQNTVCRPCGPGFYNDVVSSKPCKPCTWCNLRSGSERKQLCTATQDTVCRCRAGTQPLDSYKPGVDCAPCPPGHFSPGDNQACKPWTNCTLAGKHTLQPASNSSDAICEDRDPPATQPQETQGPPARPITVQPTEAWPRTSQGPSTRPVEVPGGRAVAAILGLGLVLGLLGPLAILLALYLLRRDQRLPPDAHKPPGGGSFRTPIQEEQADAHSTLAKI
Description: Cell binding affinity of PD-L1/OX40 antibodies were measured against CHO (ATCC, #CCL-61) overexpressing human PD-L1 (CHO-PD-L1) and CHO overexpressing OX40 (CHO-OX40), respectively. Briefly, 5×10⁵ cells were seeded into each well of a 96-well plate (Corning, #3799). Cells were centrifuged at 400 g for 5 minutes and supernatants were discarded. For each well, 100 μl of 3× serial dilution of antibodies starting from 100 nM were then added and mixed with the cells. After 60 minutes of 4° C. incubation, plates were washed several times to remove excess antibodies. […] After another round of centrifugation and washing, cells were resuspended in FACS buffer for reading on a CytoFLEX Flow Cytometer (Beckman Coulter). Median Fluorescence Intensity (MFI) readouts were plotted against antibody concentration and analyzed with GraphPad Prism 8.0.

[2] = target: T2, recombinant human OX40/His fusion protein (Novoprotein, CB17) (human, UniProt P43489 29-216); experiment: BLI (Octet RED96), antibody on AHC sensor, OX40/His as analyte, test group 4
T2 construct: Bought protein
T2 sequence: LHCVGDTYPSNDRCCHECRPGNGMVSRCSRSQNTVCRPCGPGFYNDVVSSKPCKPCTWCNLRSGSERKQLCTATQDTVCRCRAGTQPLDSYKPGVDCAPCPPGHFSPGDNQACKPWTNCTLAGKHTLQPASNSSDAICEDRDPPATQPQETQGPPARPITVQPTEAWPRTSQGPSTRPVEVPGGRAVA
Description: All 17 antibodies in Table 4 were expressed by transient transfection of HEK293 cell, purified by Protein A chromatography, and assayed for and ranked by dissociation rate constant (koff). Briefly, antibodies binding affinities and kinetics were characterized by Octet® RED96 biolayer interferometry (Pall FortéBio LLC). Antibodies were captured by Anti-hIgG Fc Capture (AHC) Biosensors (Pall) at a concentration of 100 nM for 120 seconds. After that, sensors were dipped into running buffer (1× pH 7.2 PBS, 0.05% Tween 20, 0.1% BSA) for 60 seconds to check the baseline, then dipped into recombinant human OX40/His fusion protein (Novoprotein, CB17) at assigned concentration for 200 seconds to measure binding, followed by dipped into running buffer for 600 seconds for dissociation. The assay was conducted in four test groups (as listed in Table 5) all containing the EM1007-044c chimeric antibody as the basis for normalization. The association and dissociation curves were fitted to a 1:1 Langmuir binding model using ForteBio Data Analysis software (Pall) to obtain the off-rate constants as shown in Table 5 below. The off-rate of each antibody was compared to that of the EM1007-mAb044c chimeric antibody in the same test group obtained in parallel to produce the corresponding off-rate ratio, serving as a normalized index. […]

ΔCRD1-3 = target: T3, ΔCRD1-3 (human, UniProt P43489); experiment: ELISA, OX40 variant coated at 1 µg/ml, HRP-labeled secondary antibody, OD 450 nm
T3 construct: extracellular domain without CRD1, CRD2 and CRD3 (CRD4 left); also called truncated OX40 variant lacking CRD1, CRD2 and CRD3
T3 sequence (truncated extracellular domain, looked up): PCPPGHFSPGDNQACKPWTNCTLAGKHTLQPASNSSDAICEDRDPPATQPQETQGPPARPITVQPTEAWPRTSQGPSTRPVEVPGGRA
Text: The 4 cysteine rich domains (CRD) from OX40 extracellular domain were identified from UniProt (Identifier: P43489), and full length of extracellular OX40 (CRD1-4) and truncated OX40 variants ΔCRD1 (lacking CRD1), ΔCRD1-2 (lacking CRD1 and CRD2), ΔCRD1-3 (lacking CRD1, CRD2 and CRD3), mCRD1 (CRD1-4 with CRD1 domain therein replaced by murine CRD1), mCRD2 (CRD1-4 with CRD2 domain therein replaced by murine CRD2), mCRD3 (CRD1-4 with CRD3 domain therein replaced by murine CRD3), and mCRD4 (CRD1-4 with CRD4 domain therein replaced by murine CRD4) were synthesized by Biointron. The binding of HuEM1007-044-16, OX40-Tab1 (WO2015153513), OX40-Tab2 (WO2020151761) to OX40 or OX40 truncated proteins were analyzed using ELISA to identify the pertinent binding epitope. Briefly, OX40 variants were each coated at 1 μg/ml onto a 96 well plate (Corning, #3361) which was incubated overnight at 4° C., washed with PBS containing 0.05% Tween 20, blocked with blocking buffer (PBS containing 0.05% Tween 20 and 2% BSA) at 37° C. for 2 hours. On the coated and blocked plate, serially diluted antibodies were added and incubated at 37° C. for 1 hour, washed for 3 times, then added HRP-labeled secondary antibody. Tetramethylbenzidine (TMB) chromogenic solution was added for color development for 5 minutes then the reaction was quench with 1M HCl. Absorbance at 450 nm (OD450) was measured on a microplate reader.

B1: HuEM1007-044-16 (antibody, human IgG1, kappa, L234A L235A, V domains shown)
VH: EVQLQQSGAEVKKPGSSVKVSCKASGHAFSSSWMNWVKQRPGKGLEWIGRIYPGDEITNYNAKFKDKATLTADKSTSTAYMELSSLRSEDTAVYYCARDLLMPYWGQGTLVTVSS
VL: DIVMTQTPLSLPVTPGEPASISCRSSKSLLYSNAITYLYWYLQKPGQSPQLLIYQMSNLAPGVPDRFSSSGSGTDFTLKISRVEAEDVGVYYCAQNLELPFTFGQGTKLEIKR
notes: Humanized anti-OX40, human IgG1 LALA / kappa; parental antibody of FIT1014-20a; also called HuEM1007-44-16; parental OX40 antibody
Question: For B1, which EC50 [1] is on record?
Answer: 1.8 nM

Question: What about the “Normalized Index (off-rate ratio to EM1007-mAb044c)” value [2] of the same binder?
Answer: 126%

Question: What about the koff [2] of the same binder?
Answer: 0.000352 s⁻¹

Question: Does B1 bind (ΔCRD1-3)?
Answer: no binding (tested: about 25 nM)
